Assay: soluble on expression in E. coli; label from the status in PepcDB or PDB records

Sequence | soluble on expression in E. coli
MISRVGADLGLSATAHVPRTDEPQKAKDFTTDQEVRWCPGCGDYVILATIRSFLPELGLRRENLMFVSGIGCSSRFPYYLDTYGLHSIHGRAPAIATGLAVTRPDLSVWVVTGDGDALSIGGNHLIHALRRNVNMTILLFNNRIYGLTKGQYSPTSEVGKVTKSTPLGSVDHPFNTLSLALGAEATFAARAMDSDRKGLTEVLRQAAAHRGTSFVEIYQDCPIFNDGSFDVLRKDGSEQRLIPLTHGEPIVFGGAGEYCVVRSGFGLKVVATADVDRDDIVVHDAHTDDPDYAYALSRLSDQDLTHTVTGVFRSVTRDTYDDMVRLQNEIAQEKDPVDDGSLQRLLTGHDTWTVE | not soluble
MSVASLFEKFFLSASFIDKAPRTQKDYLGYKKDLLIAFGKMDINKVEPKHVRMFMDKKAVKSGISQANRHKSALQSIFSWAYERGKIKVNPCVGVKKFTEKLEHHHHHH | not soluble
MGSDKIHHHHHHMSSNRCDDCHPAGIDDANRQPRLETAAKGGGEPAPSTANLPDAAHLPGGRIRIGISSCLLGNPVRFDGGHKFDPWVVNVLGAYLDFVPVCPEVECGMGIPREALRLVGDPSAPRLVTVKHGEDWTDRMRAWAERRVAELEGEGLCGYIFKRASPSSGMERVKVYPEFDPATGKSGGVPVQKGVGMFARAFIERFPLLPVEEEGRLNDPDLRENFIERLFVMRRWRQLLDDGLDTGGLVAFHTRHKLLMLAHSPQHYRTMGKLVAQAATYPRDELREAYQRLLMEGLRLRATPAKHVNVLQHIMGYFRKQLTPDEKQEMLEQIDLYRRALVPLVVPVTLLNHYVRKYGEKYLAGQFYLNPHPVELKLRNHV | not soluble
MLSIVCPPLSAQWAENFDHITALTSPPWRGQIADFAIIKKQLKLYVEYPDDLNESRIAITVPYFKTTTWKGDVKLDFRPTINNYLYCYLYCYGEISDSEFDYVALRWGSGSKGVDLLDVRLRVLPSGESSIVRSDILIDGSAYPLGTKPFTSFTVTYAVGSGWQLWVNGANDTGNETVLIGSSSFDVESPFQSGGLGIDCFYTKSRSKAFSFDNLSVSEGAVSPPEEEEEPIPLGKPTLNELMANPLEGGSEYIELYNPTDKPVVPSKFAIGILRNGSYTTTTALPTVADTLYPGQYIVFAKKSEGVTDFYPQAQNVVTMSNLPQLANKGFTIGLFEEGLDQPLEEVVYSPKMLGEGNVTRRGVSLERISFETPASDPTNWAGGLPSAGYATPGYLNSQSSNADTTQLGLPNNETEGNGKSYLPPASIAEE | not soluble
MNDEIKVSVLIITYNQARFIKKAIESALEQKTKFKYEIIVMDDCSSDSTIKIAGKYAEKYTDIIKVYSNNKNLGITKNYKEGFKKCRGEYIAVLEGDDYWNNKQKLQIQSNFLDRHKNFSAVFNRYIIYNAINNSKATQAWRSNTSYETITIEQLTRGNVIGNFSTCMYRKSCVDKVKESLYDMLVYDWMFNMVIAEQKPIAYLPQICSVYRIHSRGTWMGNSVKNRLALTIKLIDVYNAFFGFKYNSNFKLLKKNVYKQLINLEHHHHHH | soluble
MPRAYWKGTLKLSLVTCPVALYPATTSVEKTRFHMINAETGNRLKQQMIDEDTGDVVEKDQKARGYEVRKGKYIEIEKDELEAVQIESTHTIDIDSFVPADEIDQRFLNHPYYIVPDGKAGTDAFAVIRDAMKDKGHVALGRIVLTNREHVLAIEPFGKGLLATTLRYPYELRDAD | not soluble
MTDVARLLALRSFTELGARQRARALLDAGSFRELLDPFAGVQSPWLERQGIVPQADDGVVVARGLLDGQPAVLAAIEGAFQGGSLGEVSGAKIAGALELAAEDNRNGVPTRALLLLETGGVRLQEANLGLAAIAEIQAAIVDLQRYQPVVAVIAGPVGCFGGMSIAAGLCSYVLVTREARLGLNGPQVIEQEAGIAEYDSRDRPFIWSLTGGEQRFASGLADAYLADDLDEVRTSVLAYFAKGLPARPRCRRAEDYLRRLGDLDTAEQPDAAGVRRLYQGLGQGDAT | not soluble
MSLNRIFDAHCHIIDPQFPLIANNGYLPDPFGVGDYLATVQPLGVQGGAVVSGSFQGFDQGYLLQALRLLGPGFVGVTQLPASVTDTELDTLNAAGVRALRFNLKRGGSEQLDQLEALAVRVRERAGWHSELYIDSRELAEIETRLLKLPAISIDHLGLSAEGLPVVLRLAERGVRVKACGFGRVDFPVREALRDIHAANPNALMFGTDLPSTRAPRPFQPDDIELLIDALGEGGARQALWDNAAEFYREGHHHHHH | not soluble
WSQNEGKSVIPVQITKENSAYLADALLLDTSKEAQDAVENHSMMLSAKELFPVLETMKQIRQYGDSTDKNYGYRDEGSMFNSGNTAMYINGVWASKLIDEKIDACYAPFPGKNGSTIASSSVCLGYIVGNTGNQETMDASVEFLKYMLSEKVQKRILLETGQMPSSPKIHLEEYKEQIPRMCNAVEAIRGADRIIEVPDNLWTADQLENFRNQIMEVLNGTLDEEQFCTNLYQ | not soluble
MGSDKIHHHHHHMEEKLSDVKVSGSGSIGGGNYDEVKISGSAKINGNVNCNSYMCSGSSTANGNITAKEIVKISGTTKVHGDLNSGDLIVSGSSRTFGNVTAKKIKISGSSDIEGNVHTDSIDISGSVSIGEDCEAEHFHARGGFEIAGLLNAGDIEIYMYGKCRVKDIGGENITVKLGSGHFIHEMMNLFFTRGRLVTSIIEGDNIYLEHTDAKIVRGNNITIGPNCNIENIEYKNQLNMDQSCKALCKKVDE | not soluble
MSLLACCAIYSPVRCAFPYTETERRFTCKRRIFRIILTLCGRENMKIRALLVAMSVATVLTGCQNMDSNGLLSSGAEAFQAYSLSDAQVKTLSDQACQEMDSKATIAPANSEYAKRLTTIANALGNNINGQPVNYKVYMAKDVNAFAMANGCIRVYSGLMDMMTDNEVEAVIGHEMGHVALGHVKKGMQVALGTNAVRVAAASAGGIVGSLSQSQLGNLGEKLVNSQFSQRQEAEADDYSYDLLRQRGISPAGLATSFEKLAKLEEGRQSSMFDDHPASAERAQHIRDRMSADGIKEGGSHHHHHH | soluble
MGSDKIHHHHHHMATLSTVPRIHYLRVQNFRALRNIELKNITPLTVLLGPNGSGKTTLFDVFNFLSECFQGGLRQAWDKRGRAKELKTRGADGPVVIEIKYRESKATPLITYHLSIDEGPKGPVVAEEWLAWTRGTQGRPWRFLDYRLGKGVVVGGELPDEKDERLDVPLRSAELLAVNTLGQIAQHPRVAALRDFITDWYVSYLSVDNTRTQPEAGPMEQLSKTGDNLPNVIQYLQETHPEQLQSITEVLRRRIPRLERIDATPMPDGRLLLEVKDAPFDKPVLSKFASDGTLKMLAYLTVLYDPEPPRFIGIEEPENFLHPRLLPELGEECRHASERTQLLVTTHSPFFLNSCRPDEVRILFRDEQGHTQVRTAADIEGIPEFVAAGASLGHLWIEGQFGMSDPLRNQGAPWTIEGARRGH | not soluble
MEYLFLRRKKTRYTSVRQKTLLYRAASRRWEKEFALRTDVRRIDALIYKGILYLMEVRQVFLDSSLSLKTLSAMLETNQTYLSNVVNRYFGCNLKELVNTYRVEYAKELLRSGRCPIEEVPVRSGFGSKSPFYVAFGKVTGMTPRQYVAHERNPLKQEENN | not soluble
MGSDKIHHHHHHMLLHLSTWQEVEAYLQQSKGIIFPIGSTEQHGPTGLIGTDAICAEAIAAGVGDATGAIVGPTINVGMALHHTAFPGTISLRPSTLIQVVRDYVTCLAKAGFSKFYFINGHGGNIATLKAAFSETYAHLEDLQIANAQQVQCQVANWFMCGSVYKLAKELYGDQEGSHATPSEVALTQYVYPEAIKQAPLSPEVASGHRIYSAADFRVRYPDGRMGSNPGLATPEHGKQFYDLAVKELSNGYLEFVNAD | not soluble
MGSDKIHHHHHHKDEDPVLPLEGAKLSVAVKASGTATKAYNPNDVNELEGEAYINNLAVVVFNETGTELLGYKWEALSGAEHSAIIADVPTTKAVRARIIVLANVPRDLLSTVSTYDEFQTRLVDLSSQSQTNLTMSSQVIVTKSALSEEDNYLGYTDLGDQNVDGISDPILLTRVAARIDLVNISTRFAGTPFAGREVRIDAVGIYNMKTKSYYFSEADWGETEAPDAVRNSEDTSFEDLLVNDGTSISNTPFVHYVMENMKSDDHTMIAVKATLRGNSSYQDHTKIFTAVINAGGLQNGYDHNFIRRNYVYRLRIYFDGESFDNIPVTPDPGPGPDPEPEVDTNLNIAVQVVGWGPVMQHPVID | not soluble
INPPQHKQFQNLMPMQPRRYPEGKVLPDREREFPNTFPEHSSPLLLPKQELDMRWRGPHPLPGY | not soluble
MCIVALAWQVFDQIPLCLLSNRDEFYARPTTQLHLWENTPIIAGRDLQSGGTWMGITASGRWAVVTNFRDGHDKKIYDTSRGTLVEDFLLSDLAPIRFAKQLEQRQQHYAGFNLFMGDQSQAVYMSNRGEAPQVLAKGVYVVSNGLMSEHWEKTAHLRKRFTQEFVPMLQAEIAEHDLEYTAWDILEDERKVIPELLPSTGIHPDMEELLSSTFIQSPVYGTRCSNFLRLMKRRWIWAEKTQWGDHAGEMMRMDIQIQLEHHHHHH | not soluble
MKSYLVGGAVRDALLGLPVKDRDWVVVGATPQQMLDAGYQQVGRDFPVFLHPQSREEYALARTERKSGAGYTGFTCYAAPDVTLEADLLRRDLTVNALAQDADGAIIDPYGGQNDLRKRLLRHVSPAFSEDPLRVLRVARFAARYAHLGFRIAEETQALMAAIVEAGELAHLTPERVWKETESALTTRNPQVFFQTLRDCQALKVLFPEIDALYGVPAPAKWHPEIDTGLHTLMTVTMAAMLSPDVDVRFATLCHDLGKGLTPKALWPRHHGHGPAGVKLVEQLCARLRVPNDIRDLAKLVAEYHDLIHTLPILQPKTLVKLFDSIDAWRKPQRVQQIALTSEADVRGRTGFEASDYPQGRLLLEAWEVAQSVSTKEVVAAGFKGAEIREELTRRRIAAVAQWKEQRCPQPQG | not soluble
MPVLSKLARKMYSRLKSSLLNHFQKGANSSSNPSYNGLTKEEKKRLRHSLAECQLNDVYDPDSAHSSYQHSVSFVTTKPSSRHHQQTIDTSGHAPLAPQEVYLDETSSNSASTFYSDLLASSFSSAGGNSSFTCDYEDTNETSFIMSSGLPALSWNVQYIGSFPISGSYVDNLGRRIDSFQPTTSGGMQSVELSISVLGVKICCEKTVLMSHSLRRVTDISARPDTQNIGYVATEPVGRTYRRLCHVFHCQSLKEVSLKIHSVNVKLPGKSENRKSSTGVWALFAPIADHHIVTPVALFRLNLYNFKIGKNLQNNFEMWAIKIFKMFMGRNIFDQQDPEITIFKVSNSPAEEIENVLRNANQSQVLAAKQPKSAVSTSSMHPTNTASTMTEKRSASTVFLNRFLGKKGSQTVDESGQCKRKRRPVSAVFSSAIHRLSSSTSSVNPKRMSTIEPQAPTREQLLQLQNQMRCAASSPVPEEPRPTDLCAASTTTSTSSVASSSSSNGSSSSTDTSPVPPAPQTALVYDEKLGEWIYPIDQALMTQLDNCSYFVGQPTKDSMVYNLNTQPEGAFVIRYSESKSKCLALSMRVPCSHNPSGISHYLIIRNEQGFRLKLSATKKPFPTLQMMLTHHSVLESHLPCTLHFVQWQKTNFKQLAAMSTVERPLRTFNRHSTALTKIDENRNVTATSTPYRPSGRCGGGIDDFTTPKNRRTRNEINAMRRSHFFDDRQIVL | not soluble
VRMVGLTIETRPDWAFERQIDRMLAFGTTRVELGVQTIFNFIHERVGRGHGVEEIIKATQLLRDAGLKINYHIMPGLPGSNFERDLYVFKTIFEDPRFRPDMLKIYPTLVTRDAPLYAWYKAGLYKPYTTEEAVELLVEAYKIFPKWVRVMRIQRDIPSHLIVAGVKHSNLGQLVFEELVRRGIRPREI | not soluble

From the DeepSol protein solubility set
